This note sets out measurements from US20200297834A1.

Experiment [1] has as its target VEEV capsid (of VEEV TC-83, in infected Vero cells) (Venezuelan equine encephalitis virus, strain TC-83) (UniProt P05674). Nature of the experiment: confocal microscopy, line scan of z-stack, VEEV TC-83 infected Vero cells, 16 h.
Experiment [2] addresses VEEV E2 (of VEEV TC-83, in infected Vero cells) (Venezuelan equine encephalitis virus, strain TC-83) (UniProt P05674). The description is as above.

PKCδ (endogenous, Vero cells) returned a Pearson's correlation (co-localization) in experiment [1] of 0.771. Turning to PKCδ (endogenous, Vero cells) (enzyme), in experiment [2], the Pearson's correlation (co-localization) amounted to 0.581.
